Assay: soluble on expression in E. coli; label from the status in PepcDB or PDB records

**Q.** For “HHHHHHMAKKVNWYVSCSPRSPEKIQPELKVLANFEGSYWKGVKGYKAQEAFAKELAALPQFLGTTYKKEAAFSTRDRVAPMKTYGFVFVDEEGYLRITEAGKMLANNRRPKDVFLKQLVKWQYPSFQHKGKEYPEEEWSINPLVFVLSLLKKVGGLSKLDIAMFCLTATNNNQVDEIAEEIMQFRNEREKIKGQNKKLEFTENYFFKRFEKIYGNVGKIREGKSDSSHKSKIETKMRNARDVADATTRYFRYTGLFVARGNQLVLNPEKSDLIDEIISSSKVVKNYTRVEEFHEYYGNPSLPQFSFETKEQLLDLAHRIRDENTRLAEQLVEHFPNVKVEIQVLEDIYNSLNKKVDVETLKDVIYHAKELQLELKKKKLQADFNDPRQLEEVIDLLEVYHEKKNVIEEKIKARFIANKNTVFEWLTWNGFIILGNALEYKNNFVIDEELQPVTHAAGNQPDMEIIYEDFIVLGEVTTSKGATQFKMESEPVTRHYLNKKKELEKQGVEKELYCLFIAPEINKNTFEEFMKYNIVQNTRIIPLSLKQFNMLLMVQKKLIEKGRRLSSYDIKNLMVSLYRTTIECERKYTQIKAGLEETLNNWVVDKEVRF”, which “soluble on expression in E. coli” value is on record?
**A.** soluble

**Q.** Which “soluble on expression in E. coli” value does the source give for “HIPEMGGQHYLGDSLDKDWRVTRDNQQFAFEYQDNEGQAQSKVLTLKVGDNLEEVATYINAQQSVVDASVTQDHQLQFFTSTLNAPEGITWKGNFADEMDIGSGELVTVDDLDMSTVGGAQLAIGVVDAAIKYVDSHRSEIGGFQNRVSGTIDNLNTINRSVSESKGRIRDTDFARESTVMVRSQVLQDATTALLAQAKQRPSSALGLLS” here?
**A.** not soluble

**Q.** With “HMDPDELPLDEHCERLPYDASKWEFPRDRLNLGKPLGRGAFGQVIEADAFGIDKTATCRTVAVKMLKEGATHSEHRALMSELKILIHIGHHLNVVNLLGACTKPGGPLMVIVEFCKFGNLSTYLRSKRNEFVPYKTPEDLYKDFLTLEHLICYSFQVAKGMEFLASRKCIHRDLAARNILLSEKNVVKICDFGLARDIYKDPDYVRKGDARLPLKWMAPETIFDRVYTIQSDVWSFGVLLWEIFSLGASPYPGVKIDEEFCRRLKEGTRMRAPDYTTPEMYQTMLDCWHGEPSQRPTFSELVEHLGNLLQANAQQD” as the sequence, how does the “soluble on expression in E. coli” value read?
**A.** soluble

**Q.** For “HMTELLKNHVAGQWIAGTGAGITLTDPVTGVALVRVSSEGLDLARAFSFAREDGGAALRALTYAQRAARLADIVKLLQAKRGDYYAIATANSGTTRNDSAVDIDGGIFTLSYYAKLGASLGEVHALRDGSAESLSKDRSFSAQHVLSPTRGVALFINAFNFPSWGLWEKAAPALLSGVPVIVKPATATAWLTQRMVADVVDAGILPPGALSIICGSSAGLLDQIRSFDVVSFTGSADTAATLRAHPAFVQRGARLNVEADSLNSAILCADATPDTPAFDLFIKEVVREMTVKSGQKCTAIRRAFVPEAALEPVLEALKAKLAKITVGNPRNDAVRMGSLVSREQYENVLAGIAALREEAVLAYDSSAVPLIDADANIAACVAPHLFVVNDPDNATLLHDVEVFGPVASVAPYRVTTDTNALPEAHAVALARRGQGSLVASIYSNDDAHLGRLALELADSHGRVHAISPSVQHSQTGHGNVMPMSLHGGPGRAGGGEELGGLRALAFYHRRSAIQAASAAIGTLTQATHWPAA”, which “soluble on expression in E. coli” value is on record?
**A.** soluble

**Q.** Which “soluble on expression in E. coli” value does the source give for “HNITRPIRSMSSTCREINKNKGNYRSYRFESVKRKDEIGQLAVTFESLLRNMDNYTKMEYTSKMSATLAHEIKNPIAGIRSGIQLLKGRAAKESDKMLCESMIKEVDRVTTLIMNLFTLSVKKESPKELISFEKVIGEIAMIYSKGAEGQGVVMETAVEEGLTGYLNENEFRQIAHNLISNSIKSVIPGIEGRIRISGRESGNKALIEFQDNGKGMSREELTRAMEPFYTKSINGIGIGLAIVKKLVEQNGGLMEMASACGEGTCVRLTFYRRVEDYEENISRG” here?
**A.** not soluble

**Q.** For “HNPIDLMREIGALRQRGYNDRQIGEKIGVSTEYVNMIAGLLEKGEERLVSAVETGVLPLNLAIEISKTDAKGAQKALMDAYTQNKLRGRKLALVRRLIQQRELRGPQLHSNPLGRKPPKRALTSEGLVRAYQQEATRQKLLIKKAELTQSRLMFVREAFRKLRAD”, which “soluble on expression in E. coli” value is on record?
**A.** not soluble

**Q.** For “HVHVVSNEILGLTNLLKDKKIKSKVIQFEVQFPTEEVAAHLSIDQKTPVYYVVRLRIVEGEPYVLEKTYMPTHLIPGINDDVLHDSIYNHITNVLQLKIAGTHRKIRACKSDHIDQQHLGCKQDDPILEVEHVGFLDTGIPFEYSFSRHRHDKFVVTSVNIRR”, which “soluble on expression in E. coli” value is on record?
**A.** not soluble

**Q.** Which “soluble on expression in E. coli” value does the source give for “HYNLKASNDAKIMKTLKEARQYEQSAKPTHIQQYFKHLGQMNYQIMTVDQKGHKTFYGEPFREDTLSQNAINNVLNNKDYHGIKDKPFALFVTGFFDNVTDNTVGINFKTKDGSIAVFMRPDIGETFSEFRT” here?
**A.** not soluble

**Q.** For “IDAPSFRDKRQADKLFEKDTMDWKVSINDKSIDYSQYKMPGKKGAFPYSNLDEQLAEYNELNGVYFSNGKRVELSELQATGTAKETHRVNSPLTKAKIAYLEMTDEERQLFMKWVSQQ”, which “soluble on expression in E. coli” value is on record?
**A.** not soluble

**Q.** For “IDRMDRFALRFRALQNQYEQHKSPMRGLCGMRAGLIPHQLFIAHEVGRRYAPRVLLADEVGLGKTIEAGMIIHQQVLSGRAERVLIVVPETLQHQWLVEMMRRFNLHFSIFDEERCVEAYADSENPFDTAQFVLCSLDFIRKSKRRFEQVVEADWDLLVVDEAHHLEWNQTKPSREYQVIEAIAEETPGVLLLTATPE”, which “soluble on expression in E. coli” value is on record?
**A.** not soluble

**Q.** Which “soluble on expression in E. coli” value does the source give for “IEETGTVIIAGIGRFGQIVNRLLVSNGVTTVVLDHQANQVDNMRQIGTRAYFGDATRPDMLHTAGIEHAAALVVAIDNQESSVELVKYVKHTYPKVKIIARAFDRGHGYLLRQAGADVIESETYHSALEMGGHAMKALGI” here?
**A.** not soluble

**Q.** For “IIAWLGPQLRELTPVDTNKDPKTRLQEFLQSRGCDLPRYEVVDIQGEPHCRTFFVDCEVALLSDKTHGHGGSRRIAEQVAAAAALVALGVENGHD”, which “soluble on expression in E. coli” value is on record?
**A.** not soluble

**Q.** For “IKATYETFSSPNGHGEGRGYLVMPQKKTIKSPTVLVIHENRGLNPYIKDVARRLAKDGFIAFAPDALYPLGGYPGNDDEGRAMQKEMDRAKIEQDFIAAAKFIKQHEHGNGK”, which “soluble on expression in E. coli” value is on record?
**A.** not soluble

**Q.** Which “soluble on expression in E. coli” value does the source give for “INFPILDEPLVLSNATILTIEDVSVYSSLVKHFYQYDVDEHLKLFDDKQKSLKATELMLVTDILGYDVNSAPILKLIHGDLENQFNEKPEVKSMVEKLAATITELIAFECLENELDLEYDEIKILELIKALGVKIETQSDTIFEKCFEIIQVYHYLTKKNLLVFVNSGAYLTKDEVIKLCEYINLMQKSVLFLEPRRLYDLPQYVIDKDYFLIGEN” here?
**A.** not soluble

**Q.** With “IRRNETTEADKQIPHYEREIIYQVLYDMKKEIADLKGMMNRLAHHEQPSWPVGSDVWGNDDKRTADPKWGVSTHKAPIANAAEPVEPIQEASEYTEDPVSLEEVEKKMISLALERHGGRRKQTAEELKISERTLYRKIKEYGLE” as the sequence, how does the “soluble on expression in E. coli” value read?
**A.** not soluble

**Q.** Which “soluble on expression in E. coli” value does the source give for “IRSFATHAQLPISIVNREDDAFLNPNFRFIDHSIIGKNVPVADQSFRVGCSCASDEECMYSTCQCLDEMAPDSDEEADPYTRKKRFAYYSQGAKKGLLRDRVLQSQEPIYECHQGCACSKDCPNRVVERGRTVPLQIFRTKDRGWGVKCPVNIKRGQFVDRYLGEIITSEEADRRRAESTIARRKDVYLFALDKFSDPDSLDPLLAGQPLEVDGEYMSGPTRFINHSCDPNMAIFARVGDHADKHIHDLALFAIKDIPKGTELTFDYVNGLTGLESDAHDPSKISEMTKCLCGTAKCRGYLW” here?
**A.** soluble

**Q.** Which “soluble on expression in E. coli” value does the source give for “ISDTLNIQRKKIILYAPTFRDYNMQSIQLPFTEEQLIHQLKEEYVLFVKLHPAIQNNIDIKYSSDYIKDVSNYALFDLLMAADILITDYSSVPFEFSILNKPILFYTYDLKLYQQKRGLVDNYLSIIPGRACYDSESLINEIQTPFNYSKIKVFSDRWNKYSDGNSSQNLLNFIEN” here?
**A.** not soluble

**Q.** With “ISEFGSMNVILSIDQSTQSTKVFFYDEELNIVHSNNLNHEQKCLKPGWYEHDPIEIMTNLYNLMNEGIKVLKDKYTSVIIKCIGITNQRETVIIWDRITGKPLYNAIVWLDTRVEELVTEFSAKYNNNDIQKKTGTYFNTYFSAFKILWLIQNNPEIKQKIDDGTAVIGNINTWLIFNLTKGNCYTDVTNASRTLLMDINTLQWDEKMCKIFNITNMSVLPEIKSNCSNFGLVKSEHVPDYLNIPITGCIGDQQSACIGQAIFDEGEAKCTYGTGVFLLINTGEKVVYSTCGLITTICYKFNDNDKPKYALEGSIGTAGSGVSWLLKNKLIDDPSEASDIMEKCENTTGVIFVPAFSGLYAPRWRSDARASIYGMTFNTERSHIVRALLEGIAFQLNEIVDSLTSDMGIEMLHVLRCDGGMTKNKPFMQFNSDIINTKIEVSKYKEVTSLGAAVLAGLEVKIWDSLDSVKSLLRRSDAVFHSKMDDKKRKKKTSEWNKAVERTLIQL” as the sequence, how does the “soluble on expression in E. coli” value read?
**A.** soluble

**Q.** For “ISLKYTAARLHEKGVLLEIEDLQVNQFKNVIFEISPTEEVGDFEVKAKFMGVQMETFMLHYQDLLQLQYEGVAVMKLFDRAKVNVNLLIFLLNKKFYGK”, which “soluble on expression in E. coli” value is on record?
**A.** soluble

**Q.** With “IVGGYNCKDGEVPWQALLINEENEGFCGGTILSEFYILTAAHCLYQAKRFKVRVGDRNTEQEEGGEAVHEVEVVIKHNRFTKETYDFDIAVLRLKTPITFRMNVAPASLPTAPPATGTKCLISGWGNTASSGADYPDELQCLDAPVLSQAKCEASYPGKITSNMFCVGFLEGGKDSCQGDSGGPVVCNGQLQGVVSWGDGCAQKNKPGVYTKVYNYVKWIKNTIAANS” as the sequence, how does the “soluble on expression in E. coli” value read?
**A.** soluble

**Q.** For “KAGSAAAPFTKPFAVYKNVKFYLGDISHLVNCVSFDFVVNAANENLLHGGGVARAIDILTEGQLQSLSKDYISSNGPLKVGAGVMLECEKFNVFNVVGPRTGKHEHSLLVEAYNSILFENGIPLMPLLSCGIFGVRIENSLKALFSCDINKPLQVFVYSSNEEQAVLKFLDGLD”, which “soluble on expression in E. coli” value is on record?
**A.** soluble

**Q.** For “KALEEMHIPVDIITGTSMGAYVGGLYATGMSADEIESFIYSVDWNSGYRDRVDRSQRRVRDKEYEDRYQITTDLGLRFGEVRAPTGVVQGQNMLRVLRETTGNLGRFDSFDELAIPYRSVATDILELDEVVIGNGYLVDAMMASMSVPGALPPYKLNGHMLVDGGVVNNMPVDVARAMGADVVIAVDISTDYKTEDDFTGLFTVADQLSNYLVRRSTQQQVETLQEHDVYIRPNVGQMETVEFDKMPWAFQSGYDITREMESKLAGLRLSNAEYQKYIDHKQEVRKKLVYGDDRVVDEIVIVNNTHYS”, which “soluble on expression in E. coli” value is on record?
**A.** not soluble

**Q.** Which “soluble on expression in E. coli” value does the source give for “KAQKLNEQHQLILSKLLREEDNKYCADCEAKGPRWASWNIGVFICIRCAGIHRNLGVHISRVKSVNLDQWTAEQIQCMQDMGNTKARLLYEANLPENFRRPQTDQAVEFFIRDKYEKKKYYDKNAIAI” here?
**A.** soluble

**Q.** Which “soluble on expression in E. coli” value does the source give for “KEATWVTDKPLTLKIHMHFRDKWVWDENWPVAKESFRLTNVKLQSVANKAATNSQEQFNLMMASGDLPDVVGGDNLKDKFIQYGQEGAFVPLNKLIDQYAPHIKAFFKSHPEVERAIKAPDGNIYFIPYVPDGVVARGYFIREDWLKKLNLKPPQNIDELYTVLKAFKEKDPNGNGKADEVPFIDRHPDEVFRLVNFWGARSSGSDNYMDFYIDNGRVKHPWAETAFRDGMKHVAQWYKEGLIDKEIFTRKAKAREQMFGGNLGGFTHDWFASTMTFNEGLAKTVPGFKLIPIAPPTNSKGQRWEEDSRQKVRPDGWAITVKNKNPVETIKFFDFYFSRPGRDISNFGVPGVTYDIKNGKAVFKDSVLKSPQPVNNQLYDMGAQIPIGFWQDYDYERQWTTPEAQAGIDMYVKGKYVMPGFEGVNMTREERAIYDKYWADVRTYMYEMGQAWVMGTKDVDKTWDEYQRQLKLRGLYQVLQMMQQAYDRQYKN” here?
**A.** soluble
